Here are results for one molecule from patent publication US20210238283A1 (Y BIOLOGICS, published 2021).

For experiment [1], the target named is T1, recombinant human LAG-3 extracellular domain fused with mouse Fc (hLAG-3-mFc) (human, UniProt P18627 29-450).
T1 construct: range 29-450; Made in HEK293F cells; also called human LAG-3 antigen; wild-type (WT) LAG-3; not shown: mouse Fc (mFc) at the carboxy terminal
T1 sequence (looked up): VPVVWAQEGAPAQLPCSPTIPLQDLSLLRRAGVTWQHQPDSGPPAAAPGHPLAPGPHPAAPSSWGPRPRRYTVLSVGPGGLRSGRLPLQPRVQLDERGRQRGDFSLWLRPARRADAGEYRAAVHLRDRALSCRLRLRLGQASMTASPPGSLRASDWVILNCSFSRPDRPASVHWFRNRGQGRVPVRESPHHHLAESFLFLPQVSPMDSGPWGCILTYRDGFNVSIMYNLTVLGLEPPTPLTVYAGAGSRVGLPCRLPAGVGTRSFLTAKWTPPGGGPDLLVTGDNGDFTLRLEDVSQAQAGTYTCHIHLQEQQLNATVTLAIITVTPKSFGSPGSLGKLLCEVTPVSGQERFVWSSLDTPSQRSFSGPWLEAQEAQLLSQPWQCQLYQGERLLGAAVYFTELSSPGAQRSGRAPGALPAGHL
Briefly: BLI (Octet QKe), 1:1 global fit. The procedure: (§1) After stabilization for 10 minutes in a buffer (#18-1042, Fortebio Inc.), immobilized antigen or antibody was washed out for 5 minutes with the buffer. The antibody or antigen desired for binding was prepared at different concentrations (0.94-60 nM) in a 96-well plate (#655209, Greiner Bio-One, USA) and subjected to the association reaction for 10 minutes followed by dissociation reaction for 10 minutes or 30 minutes.

Experiment [2] addresses T2, recombinant mouse LAG-3 fused with mouse Fc (mLAG-Fc) (mouse, UniProt Q61790 24-442, limits assumed).
T2 construct: also called mouse LAG-3 antigen; not shown: mouse Fc (mFc) at the carboxy terminal
T2 sequence (looked up): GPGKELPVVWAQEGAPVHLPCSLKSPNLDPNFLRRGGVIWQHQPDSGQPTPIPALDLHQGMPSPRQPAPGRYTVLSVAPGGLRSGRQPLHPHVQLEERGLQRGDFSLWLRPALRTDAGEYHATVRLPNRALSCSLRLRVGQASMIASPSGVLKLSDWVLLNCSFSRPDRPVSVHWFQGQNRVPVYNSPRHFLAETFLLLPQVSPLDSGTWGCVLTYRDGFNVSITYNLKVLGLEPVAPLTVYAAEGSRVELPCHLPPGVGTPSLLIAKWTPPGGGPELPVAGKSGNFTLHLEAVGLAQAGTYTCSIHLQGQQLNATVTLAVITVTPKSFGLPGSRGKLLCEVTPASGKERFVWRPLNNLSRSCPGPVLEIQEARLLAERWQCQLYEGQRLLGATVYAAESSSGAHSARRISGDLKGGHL
Briefly: BLI (Octet QKe), 1:1 global fit. Here is the method:
as §1

The target in experiment [3] is T3, recombinant monkey LAG-3 fused with mouse Fc (MrhLAG-3-mFc) (monkey).
T3 construct: also called monkey LAG-3 antigen
In words: BLI (Octet QKe), 1:1 global fit. Here is the method:
as §1

Experiment [4] addresses T1, recombinant human LAG-3 extracellular …. In words: flow cytometry, inhibition of LAG-3-mFc binding to Raji cells (MHC class II). Here is the method:
After that, the antigen-antibody mixture was reacted with the prepared cells for 30 minutes at 4° C. […] After washing them in the same manner as above and suspending them in 0.2 ml PBS containing 2% FBS, analysis was made using CytoFLEX flow cytometer (Beckman coulter, USA)

Experiment [5] addresses T4, human LAG-3 overexpressed on cells (human, UniProt P18627 23-525).
T4 construct: whole, on cells; also called HEK293E-hLAG3; hLAG3 (Human)
T4 sequence (looked up): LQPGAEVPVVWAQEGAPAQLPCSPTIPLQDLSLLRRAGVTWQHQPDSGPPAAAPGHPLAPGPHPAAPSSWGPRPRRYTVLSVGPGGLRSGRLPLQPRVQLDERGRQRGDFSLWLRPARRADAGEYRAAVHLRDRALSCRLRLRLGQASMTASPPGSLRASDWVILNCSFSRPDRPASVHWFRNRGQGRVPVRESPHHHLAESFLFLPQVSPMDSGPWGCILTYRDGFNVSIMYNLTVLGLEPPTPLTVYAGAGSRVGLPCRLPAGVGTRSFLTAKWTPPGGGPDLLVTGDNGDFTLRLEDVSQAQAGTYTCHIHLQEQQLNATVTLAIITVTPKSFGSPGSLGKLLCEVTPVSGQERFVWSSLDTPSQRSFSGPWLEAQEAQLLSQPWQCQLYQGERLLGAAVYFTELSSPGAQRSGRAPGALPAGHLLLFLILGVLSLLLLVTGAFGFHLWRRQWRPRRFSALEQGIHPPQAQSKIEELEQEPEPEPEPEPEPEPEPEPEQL
Briefly: flow cytometry, HEK293E cells overexpressing human LAG-3. Here is the method:
After that, the cells were washed three times with PBS containing 2% FBS and then subjected to the reaction for 30 minutes at 4° C. with anti-human IgG antibody (#FI-3000, Vectorlabs) linked with FITC fluorescent. The cells were washed by the same washing process as above followed by suspension in 0.2 ml PBS containing 2% FBS. The cells were then analyzed by FACSCanto II flow cytometer.

Experiment [6] deals with T1, recombinant human LAG-3 extracellular …. In words: Octet biolayer interferometry, 1:1 global fit. Here is the method:
as §1

B1: human anti-LAG-3 monoclonal antibody 1E09 (antibody, V domains shown)
VH: QVQLVQSGGDLVKPGGSLRLSCAASGFSFSDHYMNWIRQAPGKGLEWVAYIDTSATYIYYADSVKGRFTISRDNAKNSLYLQMNSLRAEDTAVYYCARDNWGSLDYWGQGALVTVSS
VL: DIQMTQSPSSLSPSVGDRVTITCQASQEISIYLNWYQQKPGKAPKLLIYDASNLETGVPSRFSGSGSGTDFTLTISSLQPEDFATYYCQQTYITPYTFGQGTKLDIK
notes: Tested as full IgG converted from scFv; also called LAG-3-1E09; Parent (1E09)
For the molecule B1, the Kd in experiment [1] was found to be 91.8 pM; in experiment [2] it was 596 pM; in experiment [3] it was 328 pM. Further, the IC50 in experiment [4] was 25100 pM. It took 0.0757 µg/mL to reach a half-maximal effect in experiment [5] (EC50). Further, the koff in experiment [6] was determined as 7.23e-05 s⁻¹. For the same molecule, in experiment [6], the on-rate constant (kon) came out at 788000 M⁻¹ s⁻¹.
